# Test results as given in PMC3962721.
# Key:
# DDB2 (FLAG-tagged, in …) [1] = biological target: T1, DDB2 (FLAG-tagged, in DDB.com);DDB1;Cul4A;Roc1 (Homo sapiens?;Homo sapiens?;Homo …, UniProt Q92466;Q16531;Q13619;P62877 1-427;1-1140;1-759;1-108, |||); experiment: EMSA
# DDB2 (FLAG-tagged, in …) [2] = biological target: T1, DDB2 (FLAG-tagged, in …); experiment: competition
# DDB2 (FLAG-tagged, in …) [3] = biological target: T1, DDB2 (FLAG-tagged, in …); experiment: competition; remark: listed apart in the source
# DDB2 (FLAG-tagged, in …) [4] = biological target: T1, DDB2 (FLAG-tagged, in …); experiment: EMSA; remark: listed apart in the source
# T1 sequence (Q92466 whole entry, chain 1 of 4): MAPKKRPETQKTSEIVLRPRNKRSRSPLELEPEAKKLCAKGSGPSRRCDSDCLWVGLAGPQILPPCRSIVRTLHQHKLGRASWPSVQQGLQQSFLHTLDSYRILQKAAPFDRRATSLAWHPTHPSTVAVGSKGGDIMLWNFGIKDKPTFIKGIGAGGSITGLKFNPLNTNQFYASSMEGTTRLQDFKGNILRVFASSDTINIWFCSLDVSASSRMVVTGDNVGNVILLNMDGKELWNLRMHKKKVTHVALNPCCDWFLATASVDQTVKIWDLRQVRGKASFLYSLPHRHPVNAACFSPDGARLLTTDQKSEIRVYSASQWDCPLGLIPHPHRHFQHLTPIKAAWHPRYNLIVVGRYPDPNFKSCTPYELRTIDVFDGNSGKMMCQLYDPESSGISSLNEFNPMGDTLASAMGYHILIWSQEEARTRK
# T1 sequence (Q16531 whole entry, chain 2 of 4): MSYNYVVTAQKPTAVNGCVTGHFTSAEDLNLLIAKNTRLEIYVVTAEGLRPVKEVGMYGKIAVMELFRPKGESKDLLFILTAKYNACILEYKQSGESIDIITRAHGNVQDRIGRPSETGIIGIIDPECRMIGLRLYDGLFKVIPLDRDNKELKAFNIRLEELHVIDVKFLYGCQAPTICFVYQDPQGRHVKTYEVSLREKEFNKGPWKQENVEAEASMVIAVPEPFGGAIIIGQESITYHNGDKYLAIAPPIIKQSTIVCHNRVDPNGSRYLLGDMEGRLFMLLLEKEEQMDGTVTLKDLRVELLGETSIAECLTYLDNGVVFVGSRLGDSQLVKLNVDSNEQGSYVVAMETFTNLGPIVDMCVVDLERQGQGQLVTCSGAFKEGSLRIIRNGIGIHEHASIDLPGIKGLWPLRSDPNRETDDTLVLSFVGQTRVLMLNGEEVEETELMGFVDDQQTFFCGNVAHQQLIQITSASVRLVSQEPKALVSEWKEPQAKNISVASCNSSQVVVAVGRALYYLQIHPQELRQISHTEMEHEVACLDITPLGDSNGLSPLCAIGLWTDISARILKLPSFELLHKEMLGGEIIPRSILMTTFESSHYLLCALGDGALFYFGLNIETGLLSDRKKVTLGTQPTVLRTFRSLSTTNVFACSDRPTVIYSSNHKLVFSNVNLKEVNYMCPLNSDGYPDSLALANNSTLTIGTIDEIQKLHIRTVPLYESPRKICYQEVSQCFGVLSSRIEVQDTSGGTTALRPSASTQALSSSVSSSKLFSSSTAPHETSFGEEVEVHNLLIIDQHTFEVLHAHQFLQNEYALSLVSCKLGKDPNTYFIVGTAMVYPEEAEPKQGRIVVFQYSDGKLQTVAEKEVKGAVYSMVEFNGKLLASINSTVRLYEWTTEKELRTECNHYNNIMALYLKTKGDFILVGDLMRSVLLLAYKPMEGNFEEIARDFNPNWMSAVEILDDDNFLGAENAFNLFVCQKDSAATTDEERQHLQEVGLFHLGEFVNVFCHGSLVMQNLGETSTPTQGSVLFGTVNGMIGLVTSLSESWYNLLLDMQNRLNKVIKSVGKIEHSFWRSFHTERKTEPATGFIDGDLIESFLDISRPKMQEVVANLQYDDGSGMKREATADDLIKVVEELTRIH
# T1 sequence (Q13619 whole entry, chain 3 of 4): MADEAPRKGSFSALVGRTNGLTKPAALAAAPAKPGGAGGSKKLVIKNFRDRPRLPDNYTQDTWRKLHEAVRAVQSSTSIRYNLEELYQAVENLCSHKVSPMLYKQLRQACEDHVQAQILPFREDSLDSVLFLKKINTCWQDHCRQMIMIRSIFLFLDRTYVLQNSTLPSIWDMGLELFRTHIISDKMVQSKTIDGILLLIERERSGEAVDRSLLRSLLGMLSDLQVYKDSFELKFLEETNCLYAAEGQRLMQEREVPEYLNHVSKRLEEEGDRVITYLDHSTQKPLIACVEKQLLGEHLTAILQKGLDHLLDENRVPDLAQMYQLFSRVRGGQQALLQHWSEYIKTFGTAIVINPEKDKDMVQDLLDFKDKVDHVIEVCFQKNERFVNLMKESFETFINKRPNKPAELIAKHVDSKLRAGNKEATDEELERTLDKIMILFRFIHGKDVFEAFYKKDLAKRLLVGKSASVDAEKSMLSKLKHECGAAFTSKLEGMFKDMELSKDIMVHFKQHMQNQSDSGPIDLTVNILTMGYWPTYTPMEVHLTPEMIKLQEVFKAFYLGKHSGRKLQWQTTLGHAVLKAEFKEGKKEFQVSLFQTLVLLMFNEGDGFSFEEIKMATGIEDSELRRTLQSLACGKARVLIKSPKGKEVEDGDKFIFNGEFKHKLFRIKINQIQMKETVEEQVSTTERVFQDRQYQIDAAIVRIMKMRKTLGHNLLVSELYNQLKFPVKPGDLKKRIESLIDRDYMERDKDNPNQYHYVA
# T1 sequence (P62877 whole entry, chain 4 of 4): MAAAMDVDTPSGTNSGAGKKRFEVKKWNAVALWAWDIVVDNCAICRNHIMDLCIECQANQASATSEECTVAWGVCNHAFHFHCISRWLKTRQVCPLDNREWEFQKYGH
binder,measurement,setting,value
Bcl-2 probe (BCP1) (dsDNA) DNA 1: ATTAGGAGCTTGAAGCCTTTCAAT DNA 2: ATTGAAAGGCTTCAAGCTCCTAAT,binding result,"DDB2 (FLAG-tagged, in …) [1]",binds
Om (unlabeled mutant BCP1 competitor) (dsDNA) DNA 1: ATTAGGATATTGAAGCCTTTCAAT DNA 2: ATTGAAAGGCTTCAATATCCTAAT,binding result,"DDB2 (FLAG-tagged, in …) [2]",no binding
Ow (unlabeled wild-type BCP1 competitor) (dsDNA) DNA 1: ATTAGGAGCTTGAAGCCTTTCAAT DNA 2: ATTGAAAGGCTTCAAGCTCCTAAT,binding result,"DDB2 (FLAG-tagged, in …) [3]",binds
MnSOD probe (dsDNA) DNA 1: GAGGCTAGCCTGCAGCCTCCTTTCTCC DNA 2: GGAGAAAGGAGGCTGCAGGCTAGCCTC,binding result,"DDB2 (FLAG-tagged, in …) [4]",binds
